Reference: PMC12319226 (Frontiers in Bioinformatics, 2025)
“And” between values parts separate entries of the source, which are not always exact repeats. Identical values can stand only once.

Columns and labels:
Assay in all cases: BLI
Conditions in all cases: both partners purified
[1] = target: T1, fHbp m002420 (Neisseria meningitidis, designed fHbp …, chimera)
T1 chain: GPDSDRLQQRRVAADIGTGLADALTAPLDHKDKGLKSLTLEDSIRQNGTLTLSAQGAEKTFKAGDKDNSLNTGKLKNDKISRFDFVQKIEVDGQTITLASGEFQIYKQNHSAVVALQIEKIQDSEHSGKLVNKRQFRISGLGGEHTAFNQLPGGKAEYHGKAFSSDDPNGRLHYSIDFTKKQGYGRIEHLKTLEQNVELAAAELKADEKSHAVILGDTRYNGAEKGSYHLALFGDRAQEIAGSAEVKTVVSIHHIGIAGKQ

[2] = target: T2, fHbp m002421 (Neisseria meningitidis, designed fHbp …, point mutant)
T2 chain: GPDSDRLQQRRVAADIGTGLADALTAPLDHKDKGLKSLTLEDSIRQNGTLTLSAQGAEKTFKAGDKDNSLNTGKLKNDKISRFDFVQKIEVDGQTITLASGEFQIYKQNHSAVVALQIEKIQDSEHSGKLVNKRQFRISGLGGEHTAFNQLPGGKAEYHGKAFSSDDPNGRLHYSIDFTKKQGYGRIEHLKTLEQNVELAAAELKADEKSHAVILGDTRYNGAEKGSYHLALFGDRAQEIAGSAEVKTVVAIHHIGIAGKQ

[3] = target: T3, fHbp m002392 (Neisseria meningitidis; fHbp …, chimera)
T3 chain: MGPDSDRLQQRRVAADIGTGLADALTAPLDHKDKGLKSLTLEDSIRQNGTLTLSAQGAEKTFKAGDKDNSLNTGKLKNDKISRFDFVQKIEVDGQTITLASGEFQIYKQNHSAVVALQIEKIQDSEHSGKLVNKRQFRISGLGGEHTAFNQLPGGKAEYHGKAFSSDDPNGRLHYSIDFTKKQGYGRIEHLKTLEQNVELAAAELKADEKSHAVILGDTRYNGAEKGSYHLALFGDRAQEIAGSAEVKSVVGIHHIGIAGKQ

[4] = target: T4, fHbp m001928 (Neisseria meningitidis; fHbp …, chimera)
T4 chain: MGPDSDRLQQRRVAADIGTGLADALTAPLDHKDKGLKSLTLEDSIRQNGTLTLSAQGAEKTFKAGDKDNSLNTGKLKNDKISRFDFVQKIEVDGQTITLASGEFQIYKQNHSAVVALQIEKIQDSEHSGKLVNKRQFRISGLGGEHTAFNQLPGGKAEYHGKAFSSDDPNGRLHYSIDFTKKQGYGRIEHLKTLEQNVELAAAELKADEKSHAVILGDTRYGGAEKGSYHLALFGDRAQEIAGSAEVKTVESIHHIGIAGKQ

[5] = target: T5, fHbp m001932 (Neisseria meningitidis; fHbp …, chimera)
T5 chain: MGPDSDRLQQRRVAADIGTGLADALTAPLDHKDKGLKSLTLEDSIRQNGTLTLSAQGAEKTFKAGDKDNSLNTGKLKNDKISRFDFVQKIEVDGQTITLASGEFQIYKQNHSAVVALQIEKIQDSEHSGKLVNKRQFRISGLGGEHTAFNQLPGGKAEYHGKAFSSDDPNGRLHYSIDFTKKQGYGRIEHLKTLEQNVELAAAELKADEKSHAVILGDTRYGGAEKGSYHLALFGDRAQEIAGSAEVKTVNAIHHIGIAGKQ

[6] = target: T6, fHbp m001929 (Neisseria meningitidis; fHbp …, chimera)
T6 chain: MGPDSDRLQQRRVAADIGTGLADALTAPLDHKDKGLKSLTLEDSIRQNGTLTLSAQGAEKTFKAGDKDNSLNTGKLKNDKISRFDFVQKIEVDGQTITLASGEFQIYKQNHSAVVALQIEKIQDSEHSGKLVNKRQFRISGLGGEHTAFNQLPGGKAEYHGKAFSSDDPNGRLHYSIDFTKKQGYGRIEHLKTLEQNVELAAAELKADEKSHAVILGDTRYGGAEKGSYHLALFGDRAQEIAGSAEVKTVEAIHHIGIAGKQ

[7] = target: T7, fHbp m002415 (Neisseria meningitidis, designed fHbp …, chimera)
T7 chain: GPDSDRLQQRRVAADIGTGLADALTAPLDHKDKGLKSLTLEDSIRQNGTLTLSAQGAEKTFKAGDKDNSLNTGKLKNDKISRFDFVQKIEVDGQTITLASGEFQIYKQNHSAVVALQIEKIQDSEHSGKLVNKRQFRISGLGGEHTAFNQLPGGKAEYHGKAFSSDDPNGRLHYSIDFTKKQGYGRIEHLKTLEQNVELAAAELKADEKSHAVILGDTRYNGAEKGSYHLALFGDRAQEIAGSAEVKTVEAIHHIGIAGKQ

[8] = target: T8, fHbp m001935 (Neisseria meningitidis; fHbp …, chimera)
T8 chain: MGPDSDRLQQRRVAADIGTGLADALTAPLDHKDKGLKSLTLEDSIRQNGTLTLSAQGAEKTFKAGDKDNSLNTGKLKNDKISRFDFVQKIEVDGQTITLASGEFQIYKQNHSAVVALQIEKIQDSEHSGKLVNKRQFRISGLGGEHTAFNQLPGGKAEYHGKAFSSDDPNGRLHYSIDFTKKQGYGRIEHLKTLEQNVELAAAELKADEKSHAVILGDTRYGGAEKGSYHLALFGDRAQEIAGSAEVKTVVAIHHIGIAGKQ

[9] = target: T9, fHbp m002389 (Neisseria meningitidis; fHbp …, chimera)
T9 chain: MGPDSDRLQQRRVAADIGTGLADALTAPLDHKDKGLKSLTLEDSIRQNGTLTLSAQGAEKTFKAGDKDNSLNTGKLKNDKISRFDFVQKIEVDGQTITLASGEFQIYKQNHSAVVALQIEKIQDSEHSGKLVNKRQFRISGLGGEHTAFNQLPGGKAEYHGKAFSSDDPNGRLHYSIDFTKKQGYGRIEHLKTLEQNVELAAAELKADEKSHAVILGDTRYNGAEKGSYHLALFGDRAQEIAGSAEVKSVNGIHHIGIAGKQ

B1: mAb 4B3 (human) (antibody, V domains shown)
VH: QVQLVQSGGGLVKPGGSLRLSCAASGFPFSSYYMSWIRQAPGKGLEWVSDINNSGNVKEYADFVKGRLTISRDNVKNSMYLHMNSLRVEDTAVYYCARNRGRFDVWGQGTLVTVSA
VL: EIVMTQSPGTLSLSPGETATLSCRASQMISSPFLAWYQQRRGQAPRLLIYGASTRATDTPDRFRGSGSGTDFILTISRLEPEDFAVYYCQYYDDSPFTFGQGTKLEIK
notes: also called 4B3-2; source: Expi293, purified (MabSelect SuRe, SEC); copies: 2 + 2
In the case of B1, the Kd [1] is reported as 2.01 nM, the koff [1] is reported as 0.000887 s⁻¹ and the kon [1] is reported as 441000 ± 4480 M⁻¹ s⁻¹. It also gave a Kd [2] of 1.25 nM, a koff [2] of 0.00101 s⁻¹ and a kon [2] of 803900 ± 3510 M⁻¹ s⁻¹. The Kd [3] was 2.95 nM, the koff [3] was 0.00106 s⁻¹ and the kon [3] was 359400 ± 1640 M⁻¹ s⁻¹. The Kd [4] was 4.25 nM, the koff [4] was 0.00106 s⁻¹ and the kon [4] was 248300 ± 1560 M⁻¹ s⁻¹. It also gave a Kd [5] of 0.814 nM, a koff [5] of 0.000321 s⁻¹ and a kon [5] of 394600 ± 1740 M⁻¹ s⁻¹. The Kd [6] was 2.63 nM, the koff [6] was 0.000635 s⁻¹ and the kon [6] was 242000 ± 2590 M⁻¹ s⁻¹. For the same binder, the Kd [7] was 3.78 nM, the koff [7] was 0.00101 s⁻¹ and the kon [7] was 267700 ± 1540 M⁻¹ s⁻¹. It also gave a Kd [8] of 2.34 nM, a koff [8] of 0.000973 s⁻¹ and a kon [8] of 415300 ± 2100 M⁻¹ s⁻¹. For the same binder, the Kd [9] was 4.01 nM and 3.22 nM, the koff [9] was 0.000912 s⁻¹ and 0.00101 s⁻¹ and the kon [9] was 227000 M⁻¹ s⁻¹ and 315000 M⁻¹ s⁻¹.

B2: chimeric antibody h12C1 (antibody, V domains shown)
VH: QVQLQESGPELVKPGASVKISCKASGYSFSDYNMSWVKQSNGKSLEWIGIIDPKYGTINYNQKFKGKATLTVDQASSTAYMQLNSLTSEDSAVYYCVRDYYGSSYFDYWGQGTTLTVSS
VL: DIVLTQSPSSIYASLGERVTLTCKASQDIHNYLNWFQQKPGKSPKTLIYRANRLVDGVPSRFSGGGSGQDYSLTISSLEFEDIGIYYCLQYDEFPPTFGGGTRLEIK
notes: also called humanized 12C1; source: Expi293, purified (MabSelect SuRe, SEC); copies: 2 + 2
Work on B2 yielded a Kd [1] of 70.4 nM, a koff [1] of 0.02143 ± 0.00013 s⁻¹ and a kon [1] of 304000 ± 6160 M⁻¹ s⁻¹. It also gave a Kd [2] of 33.8 nM, a koff [2] of 0.00845 s⁻¹ and a kon [2] of 250000 ± 2560 M⁻¹ s⁻¹. It also gave a Kd [3] of 0.892 nM, a koff [3] of 0.000212 s⁻¹ and a kon [3] of 237100 ± 1550 M⁻¹ s⁻¹. For the same binder, the Kd [4] was 55.3 nM, the koff [4] was 0.0146 s⁻¹ and the kon [4] was 264000 ± 5240 M⁻¹ s⁻¹. For the same binder, the Kd [5] was 35.2 nM, the koff [5] was 0.0057 s⁻¹ and the kon [5] was 161900 ± 1160 M⁻¹ s⁻¹. It also gave a Kd [6] of 45.9 nM, a koff [6] of 0.00802 s⁻¹ and a kon [6] of 175000 ± 4560 M⁻¹ s⁻¹. The Kd [7] was 66.7 nM, the koff [7] was 0.00939 s⁻¹ and the kon [7] was 141000 ± 2240 M⁻¹ s⁻¹. It also gave a Kd [8] of 18.9 nM, a koff [8] of 0.00626 s⁻¹ and a kon [8] of 330500 ± 3080 M⁻¹ s⁻¹. For the same binder, the Kd [9] was 1.16 nM, the koff [9] was 0.000257 s⁻¹ and the kon [9] was 220700 ± 1060 M⁻¹ s⁻¹.

B3: chimeric antibody hJAR5 (antibody, V domains shown)
VH: QVQMQQPGAELVKPGASVKLSCKASGYTFISYWMHWVKQRPGRGLEWIGRIAPDTGIIYYNEKFKNKATLTVDTPSSTAYMQLNSLTSEDSAVYYCARYLKYDGSTYRFDYWGQGTTLTVSS
VL: DIVMTQAAPSVPVTPGESVSISCRSSKSLLHSNGNTYLFWFLQRPGQSPQLLIYRMSNLASGVPDRFSGSGSGTSFTLRISRVEAEDVGVYYCMQHLEYPYTFGGGTKLEIK
notes: also called hJAR5-2; humanized JAR5; source: Expi293, purified (MabSelect SuRe, SEC); copies: 2 + 2
For B3, the Kd [1] was 0.256 nM, the Kd [2] was 0.193 nM and the Kd [3] was 0.711 nM and 0.689 nM. It also gave a Kd [4] of 0.741 nM, a Kd [5] of 3.73 nM and a Kd [6] of 0.347 nM. For the same binder, the Kd [7] was 0.664 nM, the Kd [8] was 0.401 nM and the Kd [9] was 0.772 nM.

B4: mAb 1E6 (human) (antibody, V domains shown)
VH: EVQLVQSGAEVKKPGSSVKVSCKASGGTVIDYPITWVRQAPGQGLEWVGGFVPLFRTSNYGQKFQGRVTITADKSTSTASMELNSLTSEDTAIYYCARGDTAMGPFDYWGQGTLVTVSS
VL: SYVLTQPPSLSVAPGKTATLTCGGNNIAGKTVHWYQQRPGQAPVLVISYDSDRPSGIPERFSGSNSANTATLTISRVEAGDEADYYCQVWDRNSDHWVFGGGTKLTVL
notes: source: Expi293, purified (MabSelect SuRe, SEC); copies: 2 + 2
B4 gave a Kd [1] of 0.285 nM, a koff [1] of 0.000154 s⁻¹ and a kon [1] of 542300 ± 2290 M⁻¹ s⁻¹. The Kd [2] was 0.131 nM, the koff [2] was 5.56e-05 s⁻¹ and the kon [2] was 424400 ± 3050 M⁻¹ s⁻¹. It also gave a Kd [3] of 0.515 nM, a koff [3] of 0.000157 s⁻¹ and a kon [3] of 305400 ± 1880 M⁻¹ s⁻¹. The Kd [4] was 0.174 nM, the koff [4] was 0.000163 s⁻¹ and the kon [4] was 937300 ± 2910 M⁻¹ s⁻¹. It also gave a Kd [5] of 0.303 nM, a koff [5] of 0.000105 s⁻¹ and a kon [5] of 347000 ± 1890 M⁻¹ s⁻¹. For the same binder, the Kd [6] was 0.235 nM, the koff [6] was 9.11e-05 s⁻¹ and the kon [6] was 387500 ± 2190 M⁻¹ s⁻¹. It also gave a Kd [7] of 0.831 nM, a koff [7] of 0.000302 s⁻¹ and a kon [7] of 363300 ± 1200 M⁻¹ s⁻¹. The Kd [8] was 0.131 nM, the koff [8] was 5.4e-05 s⁻¹ and the kon [8] was 412500 ± 2300 M⁻¹ s⁻¹. For the same binder, the Kd [9] was 0.818 nM, the koff [9] was 0.000272 s⁻¹ and the kon [9] was 332200 ± 1430 M⁻¹ s⁻¹.
